According to doi:10.1101/2025.05.19.654868:

How the values were obtained:
[1] = target: S16N/R18S/N21K (NSK) crosslinked (disulfide-stabilised) HIV-1 CA hexamer (HIV-1); test: crystal structure; crosslinked CA hexamer 12 mg/ml mixed with 1-5 mM IP6; sitting-drop vapour diffusion, 17 °C, MORPHEUS I screen
[2] = target: S16L/R18S/N21K (LSK) crosslinked (disulfide-stabilised) HIV-1 CA hexamer (HIV-1); test: as above

| Substance | stoichiometry N [1] | stoichiometry N [2] |
| --- | --- | --- |
| S16N/R18S/N21K (NSK) crosslinked (disulfide-stabilised) HIV-1 CA hexamer (complex) | 6 | – |
| S16L/R18S/N21K (LSK) crosslinked (disulfide-stabilised) HIV-1 CA hexamer (complex) | – | 6 |
